Data taken from the supplement of paper PMC10724198.
± gives the standard deviation of the averaged measurements.

Assays:
[1] = system: Saccharomyces cerevisiae; assay: protein stability index of tFT-peptide fusion (C-terminal peptide) (PSI (0-1 scale)); higher = more stable (slower turnover)
Protocol: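 MPS profiling in S. cerevisiae of the tFT-X12 degron library: putative degron peptides plus stable controls, 12 aa, fused to the C-terminus of a sfGFP-mCherry timer. Cells are FACS-sorted into 8 mCherry/sfGFP bins and deep-sequenced. PSI runs from 0 (unstable) to 1 (stable). Backgrounds are wild type, das1Δ and doa10Δ at 30 °C, and wild type, das1Δ, cdc34-1 and cdc53-1 at 37 °C; 2-3 technical replicates each.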

[2] = system: Saccharomyces cerevisiae; assay: as above; details: genetic background: wild type; temperature: 30 C
[3] = genetic background: cdc34-1, temperature: 37 C
[4] = genetic background: cdc53-1, temperature: 37 C
[5] = genetic background: das1 deletion, temperature: 30 C
[6] = genetic background: das1 deletion, temperature: 37 C
[7] = genetic background: doa10 deletion, temperature: 30 C
[8] = genetic background: wild type, temperature: 30 C
[9] = genetic background: wild type, temperature: 37 C
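Further: PSI is a weighted mean of sequencing reads over stability bins, variants kept only with over 10 reads, mCherry proximal and sfGFP distal, peptide attached via GGGS linker.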

Sequence | protein stability index [1, 3] | protein stability index [1, 4] | protein stability index [1, 5] | protein stability index [1, 6] | protein stability index [1, 7] | protein stability index [1, 8] | protein stability index [1, 9] | protein stability index [2]
CYCSIGCLIIFS | 0.2261 ± 0.0021 | 0.374 ± 0.023 | 0.238 ± 0.033 | 0.446 ± 0.0093 | 0.206 ± 0.0053 | 0.22 ± 0.023 | 0.4089 ± 0.003 | 0.378 ± 0.074
DALHPCIIYLTC | 0.594 ± 0.049 | 0.565 ± 0.015 | 0.328 ± 0.035 | 0.609 ± 0.00096 | 0.217 ± 0.0055 | 0.254 ± 0.022 | 0.466 ± 0.013 | 0.341 ± 0.013
DECQLCNRDWRG | 0.689 ± 0.069 | 0.739 ± 0.013 | 0.634 ± 0.015 | 0.726 ± 0.019 | 0.644 ± 0.032 | 0.657 ± 0.042 | 0.733 ± 0.018 | 0.7185 ± 0.0063
DKKPMKKILLCI | 0.451 ± 0.0075 | 0.565 ± 0.068 | 0.494 ± 0.025 | 0.6477 ± 0.0033 | 0.0933 ± 0.02 | 0.0973 ± 0.0084 | 0.104 ± 0.0016 | 0.151 ± 0.029
DRLRSGLSLLLA | 0.64 ± 0.014 | 0.6817 ± 0.0049 | 0.556 ± 0.018 | 0.669 ± 0.0078 | 0.365 ± 0.015 | 0.411 ± 0.02 | 0.583 ± 0.0065 | 0.4925 ± 0.0035
DRQMRCVHIHYL | 0.647 ± 0.041 | 0.715 ± 0.028 | 0.646 ± 0.029 | 0.697 ± 0.011 | 0.275 ± 0.016 | 0.301 ± 0.015 | 0.532 ± 0.0088 | 0.412 ± 0.021
DRYSFYGYVVVL | 0.587 ± 0.021 | 0.632 ± 0.05 | 0.512 ± 0.042 | 0.66198 ± 4.4e-05 | 0.1728 ± 0.0011 | 0.186 ± 0.02 | 0.291 ± 0.041 | 0.261 ± 0.0095
DVCGVRYVLFVL | 0.57 ± 0.014 | 0.647 ± 0.018 | 0.49 ± 0.025 | 0.655 ± 0.024 | 0.416 ± 0.0086 | 0.428 ± 0.026 | 0.597 ± 0.026 | 0.502 ± 0.013
DVRLVLCEMIKG | 0.587 ± 0.048 | 0.6123 ± 0.0027 | 0.414 ± 0.028 | 0.624 ± 0.0012 | 0.394 ± 0.021 | 0.426 ± 0.021 | 0.601 ± 0.0076 | 0.513 ± 0.036
DVYIVLFIIKHG | 0.309 ± 0.052 | 0.395 ± 0.022 | 0.261 ± 0.052 | 0.4415 ± 0.0025 | 0.173 ± 0.0021 | 0.175 ± 0.034 | 0.3 ± 0.0092 | 0.241 ± 0.055
EFFTLYDLVRFI | 0.742 ± 0.042 | 0.79 ± 0.05 | 0.669 ± 0.048 | 0.791 ± 0.05 | 0.192 ± 0.00011 | 0.232 ± 0.013 | 0.434 ± 0.04 | 0.38 ± 0.025
ELTYVYRTALIA | 0.152 ± 0.004 | 0.157 ± 0.0057 | 0.204 ± 0.016 | 0.276 ± 0.0057 | 0.0966 ± 0.011 | 0.105 ± 0.014 | 0.0995 ± 0.017 | 0.183 ± 0.045
EMSIISVLRVIS | 0.61 ± 0.013 | 0.641 ± 0.017 | 0.489 ± 0.02 | 0.651 ± 0.021 | 0.181 ± 0.011 | 0.218 ± 0.034 | 0.395 ± 0.015 | 0.369 ± 0.035
ERFILVGMFGSW | 0.702 ± 0.036 | 0.717 ± 0.015 | 0.519 ± 0.017 | 0.708 ± 0.0095 | 0.532 ± 0.026 | 0.529 ± 0.027 | 0.701 ± 0.022 | 0.532 ± 0.048
ERWSPWIVVFTN | 0.464 ± 0.015 | 0.505 ± 0.012 | 0.421 ± 0.034 | 0.612 ± 0.024 | 0.173 ± 0.019 | 0.185 ± 0.022 | 0.278 ± 0.029 | 0.278 ± 0.029
ESVPLLIVLHLV | 0.304 ± 0.058 | 0.62 ± 0.085 | 0.415 ± 0.032 | 0.5979 ± 0.0039 | 0.0857 ± 0.02 | 0.0885 ± 0.0083 | 0.07176 ± 0.00058 | 0.0881 ± 0.034
ETVHVISLIAIG | 0.428 ± 0.021 | 0.5059 ± 0.0027 | 0.33 ± 0.047 | 0.527 ± 0.017 | 0.279 ± 0.014 | 0.33 ± 0.021 | 0.49577 ± 7e-05 | 0.47 ± 0.037
EWFFCLGLFRFH | 0.567 ± 0.022 | 0.6045 ± 0.0057 | 0.472 ± 0.044 | 0.6152 ± 0.0061 | 0.208 ± 0.022 | 0.235 ± 0.025 | 0.433 ± 0.00045 | 0.369 ± 0.045
FASVFCVVTGYV | 0.551 ± 0.037 | 0.611 ± 0.027 | 0.423 ± 0.018 | 0.597 ± 0.0062 | 0.406 ± 0.01 | 0.429 ± 0.013 | 0.58585 ± 7.1e-07 | 0.48 ± 0.072
FCALWLCFRLMV | 0.35 ± 0.024 | 0.403 ± 0.014 | 0.319 ± 0.028 | 0.476 ± 0.03 | 0.14 ± 0.014 | 0.149 ± 0.017 | 0.265 ± 0.028 | 0.174 ± 0.037

Sequence | protein stability index [1, 3] | protein stability index [1, 4] | protein stability index [1, 5] | protein stability index [1, 6] | protein stability index [1, 7] | protein stability index [1, 8] | protein stability index [1, 9] | protein stability index [2]
FCCLVLDLEVSG | 0.4314 ± 0.0037 | 0.548 ± 0.019 | 0.36 ± 0.032 | 0.5627 ± 0.0037 | 0.331 ± 0.0069 | 0.372 ± 0.016 | 0.541 ± 0.0084 | 0.424 ± 0.0079
FCLFMFVPLLPL | 0.531 ± 0.032 | 0.589 ± 0.013 | 0.455 ± 0.036 | 0.5868 ± 0.0043 | 0.4421 ± 0.0041 | 0.452 ± 0.027 | 0.5642 ± 0.003 | 0.453 ± 0.052
FCMLCVVFLGSL | 0.43 ± 0.067 | 0.532 ± 0.0092 | 0.39 ± 0.029 | 0.6206 ± 0.0047 | 0.358 ± 0.01 | 0.397 ± 0.015 | 0.596 ± 0.026 | 0.505 ± 0.034
FCVCLAVTCCGG | 0.279 ± 0.023 | 0.42 ± 0.013 | 0.277 ± 0.023 | 0.477 ± 0.0066 | 0.215 ± 0.0029 | 0.26 ± 0.024 | 0.42 ± 0.011 | 0.354 ± 0.01
FDWLFFFVNFVV | 0.407 ± 0.063 | 0.511 ± 0.033 | 0.475 ± 0.018 | 0.546 ± 0.029 | 0.174 ± 0.0022 | 0.163 ± 0.019 | 0.24 ± 0.0068 | 0.2459 ± 0.00064
FFAFLRFFIFYW | 0.319 ± 0.058 | 0.266 ± 0.087 | 0.349 ± 0.032 | 0.435 ± 0.0075 | 0.419 ± 0.0083 | 0.328 ± 0.0074 | 0.451 ± 0.026 | 0.448 ± 0.063
FFALFLPLACFC | 0.4689 ± 0.0012 | 0.4432 ± 0.004 | 0.38 ± 0.031 | 0.4899 ± 0.0037 | 0.353 ± 0.023 | 0.386 ± 0.014 | 0.455 ± 0.0076 | 0.429 ± 0.013
FFCCFVFVLGFC | 0.328 ± 0.011 | 0.443 ± 0.01 | 0.312 ± 0.028 | 0.4401 ± 0.0036 | 0.283 ± 0.014 | 0.291 ± 0.019 | 0.393 ± 0.0054 | 0.419 ± 0.021
FFCSILLGIILL | 0.385 ± 0.014 | 0.401 ± 0.0091 | 0.364 ± 0.029 | 0.507 ± 0.016 | 0.47 ± 0.0098 | 0.37 ± 0.033 | 0.451 ± 0.011 | 0.399 ± 0.04
FFFCFFIFCFSL | 0.327 ± 0.005 | 0.409 ± 0.025 | 0.333 ± 0.026 | 0.463 ± 0.013 | 0.335 ± 0.046 | 0.324 ± 0.015 | 0.396 ± 0.036 | 0.3698 ± 0.0032
FFFFSFFLATFS | 0.227 ± 0.018 | 0.36 ± 0.016 | 0.288 ± 0.055 | 0.418 ± 0.013 | 0.264 ± 0.029 | 0.26 ± 0.036 | 0.39074 ± 0.00019 | 0.305 ± 0.026
FFGVFIFPVSCR | 0.203 ± 0.013 | 0.226 ± 0.019 | 0.204 ± 0.028 | 0.292 ± 0.01 | 0.174 ± 0.0071 | 0.209 ± 0.032 | 0.291 ± 0.028 | 0.291 ± 0.022
FFGVLFRVSLFF | 0.12 ± 0.035 | 0.22 ± 0.011 | 0.191 ± 0.022 | 0.3075 ± 0.0027 | 0.175 ± 0.0079 | 0.173 ± 0.017 | 0.262 ± 0.0057 | 0.266 ± 0.035
FFLLLLRPPLVM | 0.34 ± 0.035 | 0.363 ± 0.0046 | 0.275 ± 0.035 | 0.4464 ± 0.0041 | 0.276 ± 0.0029 | 0.267 ± 0.03 | 0.41225 ± 0.0001 | 0.374 ± 0.051
FFRFCFLLLASS | 0.303 ± 0.011 | 0.335 ± 0.01 | 0.221 ± 0.024 | 0.4 ± 0.01 | 0.197 ± 0.019 | 0.188 ± 0.013 | 0.355 ± 0.011 | 0.25 ± 0.061
FFSRSLGAGVAA | 0.71 ± 0.037 | 0.747 ± 0.044 | 0.602 ± 0.028 | 0.715 ± 0.041 | 0.5962 ± 0.0036 | 0.604 ± 0.013 | 0.724 ± 0.033 | 0.644 ± 0.21
FFVEFFLLCFCS | 0.497 ± 0.023 | 0.498 ± 0.024 | 0.463 ± 0.057 | 0.503 ± 0.036 | 0.476 ± 0.0075 | 0.472 ± 0.019 | 0.515 ± 0.033 | 0.476 ± 0.0053
FFVSFFFFLWLV | 0.204 ± 0.011 | 0.181 ± 0.024 | 0.204 ± 0.011 | 0.261 ± 0.014 | 0.278 ± 0.038 | 0.161 ± 0.018 | 0.189 ± 0.015 | 0.228 ± 0.0027
FGFFDIKLPVVA | 0.515 ± 0.037 | 0.51 ± 0.022 | 0.38 ± 0.024 | 0.5539 ± 0.0013 | 0.345 ± 0.012 | 0.373 ± 0.041 | 0.518 ± 0.017 | 0.486 ± 0.018
